Measurements published in US5573928A, “Porcine vasoactive intestinal peptide receptor and DNA” (Eli Lilly and Company, priority 1993, dated 1996).
Where no end group is shown, it is not given here.

Target: T1, pVIP receptor (Sus scrofa, UniProt Q28992)
T1 sequence (Q28992 32-458): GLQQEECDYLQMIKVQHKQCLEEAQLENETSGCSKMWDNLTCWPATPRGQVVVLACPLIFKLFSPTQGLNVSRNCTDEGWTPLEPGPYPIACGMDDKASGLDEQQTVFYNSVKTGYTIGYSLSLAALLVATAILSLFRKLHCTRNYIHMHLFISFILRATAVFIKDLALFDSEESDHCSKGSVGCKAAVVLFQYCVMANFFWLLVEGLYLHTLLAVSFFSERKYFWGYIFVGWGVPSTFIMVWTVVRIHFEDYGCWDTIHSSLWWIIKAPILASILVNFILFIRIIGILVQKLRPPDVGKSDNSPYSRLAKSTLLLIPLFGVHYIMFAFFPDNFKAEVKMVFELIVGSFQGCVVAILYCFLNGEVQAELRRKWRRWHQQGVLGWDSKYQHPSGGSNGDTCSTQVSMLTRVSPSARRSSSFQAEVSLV
Test: cAMP assay in 293/VIPR cells expressing the pVIP receptor
Type: cell-based, porcine
Conditions: for intracellular [cAMP]: 293/VIPR cells, 45 min at 37° C.
Protocol: Briefly, a double stranded counterpart to Sequence ID#i, externally modified to incorporate convenient restriction sites, was integrated into the pRc/CMV vector and recombinantly expressed in 293 cells. The cDNA transcript included the signal peptide region of the native transcript facilitating proper orientation and integration into the transfected cell membrane. […] The cAMP level was also measured upon exposure of the transfected cells in response to the addition of secretin, and GHRH, two peptides closely related to VIP.
After removing the solution, 0.5 ml of 60% ethanol was added to lyse the cells in each well. An aliquot was taken, dried in vacUo, and the level of cAMP was determined.
Cells were washed twice with the incubation buffer (Dulbecco's modified Eagle's medium containing 0.5 mM 1-methyl-3-isobutylxanthine and 1 mg/ml BSA). […] After removing the buffer, 0.5 ml of 60% ethanol was added to lyse the cells in each well.

Row | Substance | intracellular [cAMP] (hormone concentration 10^-6 M) [pmoles/10^5 cells] | intracellular [cAMP] (hormone concentration 10^-7 M) [pmoles/10^5 cells] | intracellular [cAMP] (hormone concentration 10^-8 M) [pmoles/10^5 cells] | intracellular [cAMP] (hormone concentration 10^-9 M) [pmoles/10^5 cells] | intracellular [cAMP] (hormone concentration 10^-10 M) [pmoles/10^5 cells] | intracellular [cAMP] (hormone concentration 10^-11 M) [pmoles/10^5 cells] | intracellular cAMP levels upon exposure (in words) (transfected 293 cells expressing the protein of Sequence ID#2)
1 | GHRH: growth hormone-releasing hormone, a peptide closely related to VIP | 400 | 404 | 400 | 105 | < 10 | < 10 | 
2 | porcine secretin (HSDGTFTSELSRLRDSARLQRLLQGLV; ends and bridges not checked; UniProt P63298 33-59, looked up) [peptide hormone closely related to VIP, commercially available from Peninsula Laboratories] | 440 | 240 | 185 | 28 | < 10 | < 10 | 
3 | porcine vasoactive intestinal polypeptide [VIP] | 420 | 440 | 404 | 64 | 15 | < 10 | intracellular increase in cAMP levels
